Results: article PMC2174365 (The Journal of Cell Biology, 2000)
Substitutions are numbered along the chain they refer to. Values belong to the binder of their own block, whether it stands above or below them.

Key:
[1] = molecular target: microtubules (taxol-stabilized; polymer of alpha- and beta-tubulin); assay: cell-based or functional assay
cross-linking = molecular target: the molecule itself; assay: cross-linking

Km(MT) of the microtubule-stimulated ATPase, with 200 μM DTNB [1]: 1.24 μM tubulin | Km(MT) of the microtubule-stimulated ATPase, without DTNB [1]: 0.84 μM tubulin
B1: Cys344 Cys-light K560-GFP (neck coiled-coil mutant Tyr344Cys) (domain or fragment, human, UniProt P33176 1-560, looked up)
chain: MADLAESNIKVMCRFRPLNESEVNRGDKYIAKFQGEDTVVIASKPYAFDRVFQSSTSQEQVYNDAAKKIVKDVLEGYNGTIFAYGQTSSGKTHTMEGKLHDPEGMGIIPRIVQDIFNYIYSMDENLEFHIKVSYFEIYLDKIRDLLDVSKTNLSVHEDKNRVPYVKGATERFVSSPDEVMDTIDEGKSNRHVAVTNMNEHSSRSHSIFLINVKQENTQTEQKLSGKLYLVDLAGSEKVSKTGAEGAVLDEAKNINKSLSALGNVISALAEGSTYVPYRDSKMTRILQDSLGGNARTTIVICCSPSSYNESETKSTLLFGQRAKTIKNTVSVNVELTAEQWKKKCEKEKEKNKILRNTIQWLENELNRWRNGETVPIDEQFDKEKANLEAFTVDKDITLTNDKPATAIGVIGNFTDAERRKAEEEIAKLYKQLDDKDEEINQQSQLVEKLKTQMLDQEELLASTRRDQDNMQAELNRLQAENDASKEEVKEVLQALEELAVNYDQKSQEVEDKTKEYELLSDELNQKSATLASIDAELQKLKEMTNHQKKRAAEMMASLLK
stoichiometry N (cross-linking): 2

Km(MT) of the microtubule-stimulated ATPase, with 200 μM DTNB [1]: 1.59 μM tubulin | Km(MT) of the microtubule-stimulated ATPase, without DTNB [1]: 1.2 μM tubulin
B2: Cys337 Cys-light K560-GFP (neck coiled-coil mutant Ala337Cys) (domain or fragment, human, UniProt P33176 1-560, looked up)
chain: B1 chain with A337C, C344Y
stoichiometry N (cross-linking): 2

Km(MT) of the microtubule-stimulated ATPase, with 200 μM DTNB [1]: 1.51 μM tubulin | Km(MT) of the microtubule-stimulated ATPase, without DTNB [1]: 1.19 μM tubulin
B3: Cys337/Cys344 Cys-light K560-GFP (neck coiled-coil double mutant Ala337Cys/Tyr344Cys) (domain or fragment, human, UniProt P33176 1-560, looked up)
chain: B1 chain with A337C
